Measurements as given in PMC4463592.

Tests used:
[1] = system: preKARS2 (precursor of mitochondrial lysyl-tRNA synthetase) (Homo sapiens); assay: EMSA, Scatchard; conditions: no enolase; 0.5 uM preKARS2 (Methods print 0.5 mM); none (unmodified transcript); 20 mM Tris-HCl pH 7.5, 150 mM NaCl, 10 mM MgCl2, 5 mM DTT, 10% glycerol, 0.1 mg/mL BSA, 30 C 15 min; native 8% PAGE in 0.5x Tris-borate pH 8.3, 5% glycerol
[2] = system: human enolase alpha (ENO1) (Homo sapiens); assay: EMSA; conditions: apparent Kd, one value given for all three isoforms; none (unmodified transcript); 20 mM Tris-HCl pH 7.5, 150 mM NaCl, 10 mM MgCl2, 5 mM DTT, 10% glycerol, 0.1 mg/mL BSA, 30 C 15 min; native 8% PAGE in 0.5x Tris-borate pH 8.3, 5% glycerol
[3] = system: human enolase gamma (ENO2, neuronal) (Homo sapiens); assay: EMSA; conditions: apparent Kd, one value given for all three isoforms; none (unmodified transcript); 20 mM Tris-HCl pH 7.5, 150 mM NaCl, 10 mM MgCl2, 5 mM DTT, 10% glycerol, 0.1 mg/mL BSA, 30 C 15 min; native 8% PAGE in 0.5x Tris-borate pH 8.3, 5% glycerol
[4] = system: human enolase beta (ENO3, muscle) (Homo sapiens); assay: EMSA; conditions: apparent Kd, one value given for all three isoforms; none (unmodified transcript); 20 mM Tris-HCl pH 7.5, 150 mM NaCl, 10 mM MgCl2, 5 mM DTT, 10% glycerol, 0.1 mg/mL BSA, 30 C 15 min; native 8% PAGE in 0.5x Tris-borate pH 8.3, 5% glycerol
[5] = system: preKARS2 (precursor of mitochondrial lysyl-tRNA synthetase) (Homo sapiens); assay: EMSA; conditions: apparent Kd with human enolase gamma present; no ternary complex detected; none (unmodified transcript); 20 mM Tris-HCl pH 7.5, 150 mM NaCl, 10 mM MgCl2, 5 mM DTT, 10% glycerol, 0.1 mg/mL BSA, 30 C 15 min; native 8% PAGE in 0.5x Tris-borate pH 8.3, 5% glycerol

## tRK1 (yeast tRNALys acceptor 1) T7 transcript
[1]
  Kd: 0.3 µM
[2]
  Kd: 2 µM
[3]
  Kd: 2 µM
[4]
  Kd: 2 µM
[5]
  Kd: < 0.02 µM
